The results in this text go back to patent US20240059799A1 (Pfizer, published 2024).

T1: full-length human TL1A on CHO-K1 cells (human, UniProt O95150 1-251)
T1 construct: whole, on cells; also called cells over-expressing human TL1A
T1 sequence (looked up): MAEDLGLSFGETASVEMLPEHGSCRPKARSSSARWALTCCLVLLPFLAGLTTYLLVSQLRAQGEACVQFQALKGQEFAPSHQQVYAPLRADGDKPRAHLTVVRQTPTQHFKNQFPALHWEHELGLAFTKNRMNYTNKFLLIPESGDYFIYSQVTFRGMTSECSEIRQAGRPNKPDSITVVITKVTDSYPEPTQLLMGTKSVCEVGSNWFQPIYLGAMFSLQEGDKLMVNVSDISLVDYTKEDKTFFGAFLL

T2: recombinant human TL1A (human, UniProt O95150 71-251)
T2 construct: Homotrimeric cytokine; biotinylated with Sulfo-NHS-biotin where captured for SPR, coated unlabelled in ELISA, soluble in bioassays; also called TNFSF15
T2 chain: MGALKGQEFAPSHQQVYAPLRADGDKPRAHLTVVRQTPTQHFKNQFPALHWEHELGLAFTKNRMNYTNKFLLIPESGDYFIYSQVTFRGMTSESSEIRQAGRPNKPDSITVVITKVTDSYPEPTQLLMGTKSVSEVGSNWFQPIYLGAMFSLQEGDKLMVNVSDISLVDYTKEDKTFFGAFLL

B1: [xTL1A]-0336 (antibody, human IgG1, kappa, V domains shown)
VH: QVQLVQSGAEVKKPGASVKVSCKASGYTFTSYGISWVRQAPGQGLEWMGWISAYNGNTNYAQKLQGRVTMTTDTSTSTAYMELRSLRSDDTAVYYCARESYYGSEAFRAGMDVWGQGTTVTVSS
VL: DIQMTQSPSSLSASVGDRVTITCRASQSVSSYLAWYQQKPGKAPKLLIYDASNRATGVPSRFSGSGSGTDFTLTISSLQPEDFATYYCQQRSNWPWTFGQGTKVEIKR
notes: bivalent disabled antibody, IgG1 effector-function-minimized/kappa
B2: [xTL1A]-0352 (antibody, human IgG1, kappa, V domains shown)
VH: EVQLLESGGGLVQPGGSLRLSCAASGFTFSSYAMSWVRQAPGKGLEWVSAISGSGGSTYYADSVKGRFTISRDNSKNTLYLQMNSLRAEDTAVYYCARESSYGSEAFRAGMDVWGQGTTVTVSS
VL: B1 VL
notes: as for B1
B3: [xTL1A]-0363 (antibody, human IgG1, kappa, V domains shown)
VH: not shown
VL: B1 VL
notes: as for B1
B4: [xTL1A]-0349 (antibody, human IgG1, kappa, V domains shown)
VH: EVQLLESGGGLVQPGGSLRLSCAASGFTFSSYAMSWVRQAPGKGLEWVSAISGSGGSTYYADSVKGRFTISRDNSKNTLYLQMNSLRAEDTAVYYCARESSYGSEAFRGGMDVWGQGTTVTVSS
VL: B1 VL
notes: as for B1
B5: [xTL1A]-0358 (antibody, human IgG1, kappa, V domains shown)
VH: not shown
VL: B1 VL
notes: as for B1
B6: [xTL1A]-0347 (antibody, human IgG1, kappa, V domains shown)
VH: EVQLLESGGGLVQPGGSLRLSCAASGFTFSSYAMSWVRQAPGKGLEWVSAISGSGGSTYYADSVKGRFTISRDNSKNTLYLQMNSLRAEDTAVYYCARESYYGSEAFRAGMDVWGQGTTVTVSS
VL: B1 VL
notes: as for B1
B7: [xTL1A]-0338 (antibody, human IgG1, kappa, V domains shown)
VH: B1 VH with Y101S, A109G
VL: B1 VL
notes: as for B1
B8: TL1A-0374 MBsAb (bispecific antibody)
heavy 1: QVQLVQSGAEVKKPGASVKVSCKASGYDYTYYGISWVRQAPGQGLEWMGWISTYNTGTHYAPSLQGRVTMTTDTSTSTAYMELRSLRSDDTAVYYCARESYYGSGAFRGGMDVWGQGTTVTVSSASTKGPSVFPLAPSSKSTSGGTAALGCLVKDYFPEPVTVSWNSGALTSGVHTFPAVLQSSGLYSLSSVVTVPSSSLGTQTYICNVNHKPSNTKVDKKVEPKSCDKTHTCPPCPAPEAAGAPSVFLFPPKPKDTLMISRTPEVTCVVVDVSHEDPEVKFNWYVDGVEVHNAKTKPREEQYNSTYRVVSVLTVLHQDWLNGKEYKCKVSNKALPAPIEKTISKAKGQPREPQVCTLPPSREEMTKNQVSLWCLVKGFYPSDIAVEWESNGQPENNYKTTPPVLDSDGSFFLYSKLTVDKSRWQQGNVFSCSVLHEALHSHYTQKSLSLSPGK
heavy 2: not shown
light: not shown
notes: not shown: human IgG1 constant region with hole KiH, effector-minimizing and LS mutations
B9: TL1A-0371 MBsAb (bispecific antibody)
heavy 1: B8 heavy 1
heavy 2: not shown
light: not shown
notes: as for B8
B10: TL1A-0373 MBsAb (bispecific antibody)
heavy 1: B8 heavy 1
heavy 2: not shown
light: not shown
notes: as for B8
B11: TL1A-0373 (bispecific antibody)
heavy 1: B8 heavy 1
heavy 2: not shown
light: not shown
notes: not shown: human IgG1 constant region with effector-minimizing, KiH and LS mutations
B12: TL1A-0326 (antibody, human IgG1, kappa)
heavy 1: B8 heavy 1
heavy 2: EPKSSDKTHTCPPCPAPEAAGAPSVFLFPPKPKDTLMISRTPEVTCVVVDVSHEDPEVKFNWYVDGVEVHNAKTKPREEQYNSTYRVVSVLTVLHQDWLNGKEYKCKVSNKALPAPIEKTISKAKGQPREPQVYTLPPCREEMTKNQVSLSCAVKGFYPSDIAVEWESNGQPENNYKTTPPVLDSDGSFFLVSKLTVDKSRWQQGNVFSCSVLHEALHSHYTQKSLSLSPGK
light: not shown
notes: one-armed (monovalent) antibody derived from TL1A-0260
B13: TL1A-0374 (bispecific antibody)
heavy 1: B8 heavy 1
heavy 2: not shown
light: not shown
notes: also called TL1A-0374 MBsAb; not shown: human IgG1 constant region with effector-minimizing, KiH and LS mutations
B14: TL1A-0375 (bispecific antibody)
heavy 1: B8 heavy 1
heavy 2: not shown
light: not shown
notes: also called TL1A-0375 MBsAb; not shown: human IgG1 constant region with effector-minimizing, KiH and LS mutations

Numbering of substitutions follows the chain as printed.

T4 sequence (P02769 25-607 limits assumed): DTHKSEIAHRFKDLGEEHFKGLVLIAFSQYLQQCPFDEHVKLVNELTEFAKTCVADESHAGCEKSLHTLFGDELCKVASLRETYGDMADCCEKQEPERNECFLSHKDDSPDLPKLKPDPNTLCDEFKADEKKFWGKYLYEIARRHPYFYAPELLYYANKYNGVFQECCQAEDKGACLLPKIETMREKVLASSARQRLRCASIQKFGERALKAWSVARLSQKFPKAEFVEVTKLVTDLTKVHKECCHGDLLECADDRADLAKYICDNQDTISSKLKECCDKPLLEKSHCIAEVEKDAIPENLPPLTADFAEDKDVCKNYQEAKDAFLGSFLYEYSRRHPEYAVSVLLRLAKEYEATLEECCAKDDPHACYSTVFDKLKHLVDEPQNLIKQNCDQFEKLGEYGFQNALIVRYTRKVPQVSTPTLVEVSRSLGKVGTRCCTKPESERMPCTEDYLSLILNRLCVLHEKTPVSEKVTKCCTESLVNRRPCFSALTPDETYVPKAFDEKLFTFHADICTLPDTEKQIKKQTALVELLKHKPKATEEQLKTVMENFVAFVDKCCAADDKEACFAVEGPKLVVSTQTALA

One experiment has as its target T1, full-length human TL1A on CHO-K1 cells. As to the kind of experiment: flow cytometry on CHO-K1 cells stably expressing full-length human TL1A, PE anti-human IgG, median fluorescent intensity. As for the experimental part: A cell binding assay was performed to examine if the panel of [xTL1A] bivalent antibody variants could bind to human TL1A over-expressed on the cell surface. […] [xTL1A] bivalent antibody variants were incubated with cells on ice for 30-60 minutes at a concentration of either 1 μg/mL or 20 μg/mL. Cells were pelleted by centrifugation at 1500 RPM for 5 minutes at 4° C. and supernatant was discarded by aspiration. The cells were washed three times with DPBS with 4% FBS buffer as described. Cells were resuspended in 100 μL of PE-anti-human IgG (Life technologies Catalog number H10104) diluted 1:500 in DPBS with 4% FBS buffer and incubated on ice for 15 minutes. Cells were washed three times as described and resuspended in 200 μL of DPBS with 4% FBS buffer, then run on a flow cytometry instrument.
A general note: A flow cytometer gives signals particle by particle.
In the case of B1, the binding result was “no binding (tested: 20 ug/mL)”.

For the molecule B2, the binding result is listed as “no binding (tested: 20 ug/mL)”.

As for B3, the binding result is listed as “no binding (tested: 20 ug/mL)”.

B4: the binding result is “no binding (tested: 20 ug/mL)”.

Take B5: the binding result was “no binding (tested: 20 ug/mL)”.

In the case of B6, the binding result is “no binding (tested: 20 ug/mL)”.

Take B7: the binding result was “no binding (tested: 20 ug/mL)”.

Another experiment concerns the target T3, human serum albumin (human, UniProt P02768 25-609).
T3 construct: also called HSA
As to the kind of experiment: direct binding ELISA on coated HSA. As for the experimental part:
(§1) For the direct binding ELISA method to HSA or BSA, 96-well high binding plates (Corning, product number 3590) were coated with 1 μg/mL recombinant HSA or BSA in 100 μL/well in PBS overnight at 4° C. Plates were then blocked in PBS+0.02% casein solution and washed with PBS+0.05% Tween-20 following standard ELISA protocol. […] Plates were washed with PBS+0.05% Tween-20 following standard ELISA protocol, and goat anti-human IgG-Fc HRP conjugated secondary antibody (Pierce, #31413) diluted to 1:10,000 in assay buffer was added to plates and incubated for 1 hour at room temperature. Next, the plates were washed with PBS+0.05% Tween-20 following standard ELISA protocol, and then TMB substrate (BioFX Laboratories, catalog number TMBW-0100-01) was added to plates.
(§2) Reactions were stopped after approximately 5 minutes by adding 0.18 M ortho-phosphoric acid to each well and absorbance was read at 450 nm. […] For this method, samples diluted to 0.3 mg/mL were dispensed into the sample tray of a MicroCal VP-Capillary DSC with Autosampler (Malvern Instruments, Inc.), equilibrated for 5 minutes at 10° C. and then scanned up to 110° C. at a rate of 100° C. per/hour. A filtering period of 16 seconds was selected. Raw data was baseline corrected and the protein concentration was normalized. Origin Software 7.0 (Origin Lab Corporation, Northampton, MA) was used to fit the data to an MN2-State Model with an appropriate number of transitions.
In general terms: An ELISA detects its analyte on a solid surface through an enzyme-linked reagent.
With B8, the binding result was “no binding (tested: 0.5-1000 nM)”.

On to B9, for which the binding result is reported as “no binding (tested: 0.5-1000 nM)”.

Turning to B10, the binding result was “no binding (tested: 0.5-1000 nM)”.

For another experiment, the target named is T2, recombinant human TL1A. As to the kind of experiment: SPR, recombinant human TL1A. In general terms: SPR reads the build-up and loss of mass on a sensor chip optically.
With B11, the dissociation constant Kd was 0.285 nM, the off-rate (koff) stood at 4.95e-05 s⁻¹ and the kon turned out to be 173000 M⁻¹ s⁻¹.

Take B12: the Kd was 0.292 nM, the dissociation rate constant (koff) worked out at 5.84e-05 s⁻¹ and the kon was determined as 200000 M⁻¹ s⁻¹.

For the molecule B13, the Kd came to 0.268 nM, the off-rate constant (koff) was 5.59e-05 s⁻¹ and the kon was found to be 209000 M⁻¹ s⁻¹.

For B14, the Kd was determined as 0.232 nM, the koff worked out at 4.9e-05 s⁻¹ and the kon came to 211000 M⁻¹ s⁻¹.

A further experiment has as its target T4, bovine serum albumin (bovine, UniProt P02769 25-607).
T4 construct: also called BSA
As to the kind of experiment: direct binding ELISA on plate-coated BSA (1 ug/mL), anti-human IgG-Fc HRP, OD450. The protocol:
as §1, §2
In the case of B11, the binding result is “no binding (tested: 1e-6 M)”.

With B12, the binding result was “no binding (tested: 1e-6 M)”.

Take B13: the binding result is listed as “no binding (tested: 1e-6 M)”.

For the molecule B14, the binding result is “no binding (tested: 1e-6 M)”.

The target of another experiment is T2, recombinant human TL1A. As to the kind of experiment: direct binding ELISA on plate-coated recombinant human TL1A (1 ug/mL), anti-human IgG-Fc HRP, OD450. The protocol:
For the direct binding ELISA, 96-well high binding plates (Corning, product number 3590) were coated with 1 μg/mL recombinant TL1A in 100 μL/well in PBS overnight at 4° C. Plates were then blocked in PBS+0.02% casein solution and washed with PBS+0.05% Tween-20 following standard ELISA protocol. […] Plates were washed with PBS+0.05% Tween-20 following a standard ELISA protocol, and goat anti-human IgG-Fc HRP conjugated secondary antibody (Pierce, catalog number 31413) diluted to 1:10,000 in assay buffer was added to plates and incubated for 1 hour at room temperature. Next, the plates were washed with PBS+0.05% Tween-20 following a standard ELISA protocol, and then TMB substrate (BioFX Laboratories, catalog number TMBW-0100-01) was added to the plates. Reactions were stopped after approximately 5 minutes by adding 0.18 M ortho-phosphoric acid to each well and absorbance was read at 450 nm.
Consider B1, for which the binding result is on record as “no binding (tested: 33.3 nM)”.

As for B2, the binding result is “no binding (tested: 33.3 nM)”.

As to B3, the binding result is recorded as “no binding (tested: 33.3 nM)”.

Take B4: the binding result was “no binding (tested: 33.3 nM)”.

Take B5: the binding result was “no binding (tested: 33.3 nM)”.

Consider B6, for which the binding result is recorded as “no binding (tested: 33.3 nM)”.

For the molecule B7, the binding result is “no binding (tested: 33.3 nM)”.

The target of the next experiment is T4, bovine serum albumin. As to the kind of experiment: direct binding ELISA on coated BSA. The protocol:
as §1, §2
On to B8, for which the binding result is “no binding (tested: 0.5-1000 nM)”.

For the molecule B9, the binding result was “no binding (tested: 0.5-1000 nM)”.

With B10, the binding result is given as “no binding (tested: 0.5-1000 nM)”.

In a further experiment the target is T2, recombinant human TL1A. As to the kind of experiment: cell-based or functional assay.
Consider B11, for which the “NFκB Bioassay IC50” value was 1.66 nM.

On to B12, for which the “NFκB Bioassay IC50” value stood at 1.28 nM.

In the case of B13, the “NFκB Bioassay IC50” value turned out to be 1.49 nM.

For B14, the “NFκB Bioassay IC50” value is 1.35 nM.

The target of a further experiment is T3, human serum albumin. Put plainly: direct binding ELISA on plate-coated HSA (1 ug/mL), anti-human IgG-Fc HRP, OD450. The protocol: as §1, §2
Consider B11, for which the binding result is on record as “no binding (tested: 1e-6 M)”.

For the molecule B12, the binding result is “no binding (tested: 1e-6 M)”.

As for B13, the binding result is “no binding (tested: 1e-6 M)”.

In the case of B14, the binding result was “no binding (tested: 1e-6 M)”.

For orientation: Kd means the constant that tells how readily two partners part at equilibrium. By koff is commonly meant the first-order rate constant of dissociation. One may read the kon as a measure of how fast the partners come together.
